Test results as given in US20220332804A1 (CSL INNOVATION, published 2022).

Experiments:
Assay in all cases: SPR, mAb captured, C2 mutant analyte;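 also: Anti-C2 mAbs captured on goat anti-human IgG Biacore CM5 chips, alanine or serine C2 surface mutants flowed over at 37 °C, double-referenced sensorgrams fitted to a 1:1 binding model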
human C2 K329A = biological target: T1, human C2 K329A (human, UniProt P06681 21-752)
T1 sequence: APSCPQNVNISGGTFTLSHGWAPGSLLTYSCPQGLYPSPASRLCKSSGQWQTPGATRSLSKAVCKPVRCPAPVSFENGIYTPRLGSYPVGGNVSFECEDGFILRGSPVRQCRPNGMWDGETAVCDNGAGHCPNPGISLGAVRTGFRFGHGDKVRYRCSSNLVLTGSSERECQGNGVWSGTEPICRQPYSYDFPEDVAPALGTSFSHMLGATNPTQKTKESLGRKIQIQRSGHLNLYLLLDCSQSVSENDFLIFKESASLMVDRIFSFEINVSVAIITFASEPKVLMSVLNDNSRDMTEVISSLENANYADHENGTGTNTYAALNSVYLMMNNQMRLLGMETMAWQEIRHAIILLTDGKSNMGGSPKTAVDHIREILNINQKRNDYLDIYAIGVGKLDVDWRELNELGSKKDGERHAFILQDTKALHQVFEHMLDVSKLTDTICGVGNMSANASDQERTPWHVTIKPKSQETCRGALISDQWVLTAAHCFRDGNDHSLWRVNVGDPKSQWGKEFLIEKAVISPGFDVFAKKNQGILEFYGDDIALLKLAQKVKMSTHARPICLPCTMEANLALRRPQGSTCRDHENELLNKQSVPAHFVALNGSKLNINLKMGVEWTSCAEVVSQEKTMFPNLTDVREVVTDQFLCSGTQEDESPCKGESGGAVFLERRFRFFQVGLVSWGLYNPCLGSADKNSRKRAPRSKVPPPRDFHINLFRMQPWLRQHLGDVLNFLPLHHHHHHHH

human C2 E324A = biological target: T2, human C2 E324A (human, UniProt P06681 21-752)
T2 sequence: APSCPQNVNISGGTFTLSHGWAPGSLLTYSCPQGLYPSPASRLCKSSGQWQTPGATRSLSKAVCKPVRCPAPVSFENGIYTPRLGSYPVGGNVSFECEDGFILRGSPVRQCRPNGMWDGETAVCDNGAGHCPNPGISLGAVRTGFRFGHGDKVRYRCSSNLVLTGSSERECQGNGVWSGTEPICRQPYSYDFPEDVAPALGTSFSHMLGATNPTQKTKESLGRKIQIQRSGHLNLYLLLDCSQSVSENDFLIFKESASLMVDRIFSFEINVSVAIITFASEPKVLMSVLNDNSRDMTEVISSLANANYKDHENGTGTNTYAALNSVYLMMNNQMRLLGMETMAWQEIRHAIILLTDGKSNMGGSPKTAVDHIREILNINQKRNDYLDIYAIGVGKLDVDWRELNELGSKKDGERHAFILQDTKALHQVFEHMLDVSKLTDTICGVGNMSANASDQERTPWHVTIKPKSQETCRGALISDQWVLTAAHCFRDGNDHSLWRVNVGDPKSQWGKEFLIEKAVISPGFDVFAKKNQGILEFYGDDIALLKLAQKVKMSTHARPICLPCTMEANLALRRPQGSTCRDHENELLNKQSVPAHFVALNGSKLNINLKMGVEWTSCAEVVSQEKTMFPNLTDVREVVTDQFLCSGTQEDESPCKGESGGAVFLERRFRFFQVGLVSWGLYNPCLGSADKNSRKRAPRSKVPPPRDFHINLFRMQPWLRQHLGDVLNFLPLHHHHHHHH

human C2 D454A = biological target: T3, human C2 D454A (human, UniProt P06681 21-752)
T3 sequence: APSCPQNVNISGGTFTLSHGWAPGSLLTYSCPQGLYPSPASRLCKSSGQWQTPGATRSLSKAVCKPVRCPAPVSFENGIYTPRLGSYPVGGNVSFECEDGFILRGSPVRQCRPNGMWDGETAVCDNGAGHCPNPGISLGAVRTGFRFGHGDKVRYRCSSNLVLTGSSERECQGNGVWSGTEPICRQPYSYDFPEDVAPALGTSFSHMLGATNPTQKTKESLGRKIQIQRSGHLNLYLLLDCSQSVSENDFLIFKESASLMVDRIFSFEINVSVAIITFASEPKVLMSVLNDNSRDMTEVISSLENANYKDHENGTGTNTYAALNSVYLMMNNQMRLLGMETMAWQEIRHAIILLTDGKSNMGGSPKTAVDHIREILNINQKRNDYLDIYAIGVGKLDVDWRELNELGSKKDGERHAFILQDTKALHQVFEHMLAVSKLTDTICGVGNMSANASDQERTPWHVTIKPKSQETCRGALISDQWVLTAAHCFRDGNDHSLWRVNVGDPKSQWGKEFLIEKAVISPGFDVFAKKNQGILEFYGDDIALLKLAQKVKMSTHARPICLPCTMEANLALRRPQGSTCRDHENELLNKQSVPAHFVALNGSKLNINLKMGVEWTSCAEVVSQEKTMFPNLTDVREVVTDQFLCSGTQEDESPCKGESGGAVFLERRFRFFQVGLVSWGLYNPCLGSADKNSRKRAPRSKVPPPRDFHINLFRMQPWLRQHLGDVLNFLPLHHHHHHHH

human C2 I272A = biological target: T4, human C2 I272A (human, UniProt P06681 21-752)
T4 sequence: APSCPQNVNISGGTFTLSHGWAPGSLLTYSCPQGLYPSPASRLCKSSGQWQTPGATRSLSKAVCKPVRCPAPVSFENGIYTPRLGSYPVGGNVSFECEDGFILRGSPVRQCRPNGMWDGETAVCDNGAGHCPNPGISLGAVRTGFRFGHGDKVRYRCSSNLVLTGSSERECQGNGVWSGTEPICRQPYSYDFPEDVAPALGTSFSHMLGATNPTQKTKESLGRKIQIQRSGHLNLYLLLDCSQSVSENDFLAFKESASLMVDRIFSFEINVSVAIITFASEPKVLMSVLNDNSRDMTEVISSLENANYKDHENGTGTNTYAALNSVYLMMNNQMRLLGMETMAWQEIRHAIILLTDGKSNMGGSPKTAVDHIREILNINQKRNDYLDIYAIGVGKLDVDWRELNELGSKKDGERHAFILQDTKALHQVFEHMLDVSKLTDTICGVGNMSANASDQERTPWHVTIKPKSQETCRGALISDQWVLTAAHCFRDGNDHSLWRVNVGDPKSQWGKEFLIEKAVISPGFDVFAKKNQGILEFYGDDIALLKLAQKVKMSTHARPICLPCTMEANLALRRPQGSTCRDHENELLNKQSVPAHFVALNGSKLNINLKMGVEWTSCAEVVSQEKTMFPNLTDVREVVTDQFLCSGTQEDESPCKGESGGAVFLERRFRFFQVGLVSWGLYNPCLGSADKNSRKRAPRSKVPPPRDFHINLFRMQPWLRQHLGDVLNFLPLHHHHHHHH

Kd (human C2 K329A): 0.0626 µM
Kd (human C2 E324A): 0.0278 µM
Kd (human C2 D454A): 0.111 µM
Kd (human C2 I272A): 0.477 µM
B1: RF16-214 (antibody, V domains shown)
VH: EVQLLESGGGLVQPGGSLRLSCAASGFTFSWYQMMWVRQAPGKGLEWVSRIYPSGGGTAYADSVKGRFTISRDNSKNTLYLQMNSLRAEDTAVYYCARDAGYGDNWGQGTLVTVSS
VL: QSALTQPPSVSVSPGQTASITCSGDKLGEKYASWYQQKAGQSPVMVIYQDRKRPSGIPERFSGSNSGNTATLTISGTQAMDEADYYCQAWDTRAVVFGGGTKLTVLG
